Experimental data as given in article doi:10.1101/2020.12.02.404004.

Molecular target: VcSiaP R125A Q54R1 L173R1 with N-terminal HisTEV tag (Vibrio cholerae) (UniProt Q9KR64)
Assay: crystal structure

Substance: VcSiaP R125A Q54R1 L173R1 with N-terminal HisTEV tag (from UniProt Q9KR64 23-321) (natural protein)
- stoichiometry N: 2
